Literature values, collected in paper PMC5501900.

Molecular target: Vinculin tail tail (Homo sapiens) (UniProt P18206)

- Kd: < 1 nM
Substance: Vinculin head head (from UniProt P18206)
